Columns and labels:
Experiment in all cases: fluorescence polarisation
[1] = molecular target: fluorescent peptide corresponding to the SH3 binding motif of FraC (Anabaena sp. strain PCC 7120)
[2] = molecular target: SepJ peptide bearing proline-to-serine substitutions (Anabaena sp. strain PCC 7120)
[3] = molecular target: fluorescent peptide corresponding to the SH3 binding motif of SepJ (Anabaena sp. strain PCC 7120)

Kd [1]: 12 µM | Kd [2]: > 2000 µM | Kd [3]: 39 µM
Substance: His-tagged SjcF1 (All1861 without transmembrane domain) (domain or fragment)
